According to US20160159869A1 (NORTHWESTERN UNIVERSITY, published 2016):
C16 = C16 alkyl tail covalently attached at the N-terminus

T1: Human recombinant BMP-2 with hexahistidine-tag fused at the C-terminus (AdipoGen) (human, UniProt P12643 283-396)
T1 construct: Immobilised on a Ni2+-NTA chip for SPR; also called His-BMP-2; hexahistidine-tagged BMP-2
T1 sequence: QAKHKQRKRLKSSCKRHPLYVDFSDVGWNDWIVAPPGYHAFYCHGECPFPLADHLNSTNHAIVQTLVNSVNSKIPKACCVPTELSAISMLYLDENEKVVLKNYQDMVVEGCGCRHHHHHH


What was measured:
[1] = target: Recombinant human BMP-2 (Medtronic Sofamor Danek) (human) (UniProt P12643); test: capture of BMP-2 by a 20 µL PA gel from medium containing 25 ng BMP-2, 37 °C, 4 h, sandwich ELISA of the medium
[2] = target: T1, Human recombinant BMP-2 with …; test: SPR (Biacore 3000), His-BMP-2 immobilised on Ni2+-NTA chip, PA injected at pH 8.4, 2:1 binding model, KD from the major dissociation rate and ka; diluent PA (no binding segment), prepared at pH 8.4
Procedure: As a control, the BMP-2-binding PA ([…], pH 7.4) was injected to a bare NTA-dextran chip, and we observed non-specific binding of the PA to the surface (FIG. 4). It is contemplated that the fibrillar nanostructures can be entangled to the NTA-dextran surface. To circumvent this, the BMP-2-binding PA was prepared at pH 8.4, where more glutamic acid residues are deprotonated to induce greater electrostatic repulsion between the PA molecules, and sonicated the solution to further break up the supramolecular assembly. […] The best fit was obtained by using the 2:1 binding model, which had two dissociation constants: a major dissociation constant (k_{d,1}) and a minor dissociation constant (k_{d,2}) with the ratio of their contributions (R₁/R₂).
The SPR measurements were performed using a Biacore 3000 instrument (GE Healthcare, Pittsburgh, Pa.) equipped with a NTA Sensor Chip (GE Healthcare) at 25° C. HBS-P eluent buffer and HBS-EP dispenser buffer were purchased from GE Healthcare. NiCl 2 solution (500 μM in eluent buffer), elution buffer (300 mM imidazole and 500 mM NaCl in water), and regeneration buffer (10 mM HEPES, 150 mM NaCl, 0.005% polysorbate 20, 350 mM EDTA at pH 7.4) were prepared according to Biacore specifications. […]

[3] = target: T1, Human recombinant BMP-2 with …; test: SPR (Biacore 3000): His-BMP-2 captured on Ni2+-NTA chip, PA injected at pH 8.4. Fit with the 2:1 binding model. Column kd,1 (major dissociation rate constant).
Procedure: (§1) The SPR measurements were performed using a Biacore 3000 instrument (GE Healthcare, Pittsburgh, Pa.) equipped with a NTA Sensor Chip (GE Healthcare) at 25° C. HBS-P eluent buffer and HBS-EP dispenser buffer were purchased from GE Healthcare. NiCl 2 solution (500 μM in eluent buffer), elution buffer (300 mM imidazole and 500 mM NaCl in water), and regeneration buffer (10 mM HEPES, 150 mM NaCl, 0.005% polysorbate 20, 350 mM EDTA at pH 7.4) were prepared according to Biacore specifications. Human recombinant BMP-2 with hexahistidine-tag fused at the C-terminus (AdipoGen, San Diego, Calif.) was initially reconstituted in PBS at 20 μg/ml, and diluted to 500 nM in eluent buffer.
(§2) Ni²⁺ was first loaded on the NTA chip for 5 min at a flow rate of 20 μl/min, and then His-BMP-2 for 1.25 min at 4 μl/min. Afterwards, each PA sample was injected for 2 min at […], followed by 5 min dissociation at […]. […] To compare binding affinity of the PAs, the sensograms were processed and analyzed with BIAevaluation 4.1 software. The sensogram from blank injection was subtracted from the PA sensograms, and the apparent equilibrium dissociation constant KD was determined using 2:1 binding model, which assumes bivalent analyte interaction with two dissociation constants kd,1 and kd,2, where kd,1 is more dominant.

[4] = target: T1, Human recombinant BMP-2 with …; test: SPR (Biacore 3000): His-BMP-2 captured on Ni2+-NTA chip, PA injected at pH 8.4. Fit with the 2:1 binding model. Column ka.
Procedure: as §1, §2

| amount of BMP-2 bound on the gel after 4 h [1] | Kd [2] | koff [3] | kon [4] | Molecule |
| --- | --- | --- | --- | --- |
| 15.5 ng |  |  |  | diluted BMP-2-binding PA (D-BMP2b-PA), co-assembly of BMP2b-PA and diluent PA at 1:1 weight ratio |
|  | 2100 nM | 0.011 s⁻¹ | 5300 M⁻¹ s⁻¹ | C16-VVVAAAEEE-OH (In SPR it was used as a solution at pH 8.4; In the capture assay it was a 1 wt % nanofiber gel formed with CaCl2; also called diluent PA gel) [diluent PA, C16-V3A3E3-COOH] |
